These results are taken from the Human Domainome abundance scans (Beltran et al. 2025).

± gives the uncertainty stated by the source.

A short description of the data set: abundance fitness (aPCA) (normalised: wild type 0, dead -1); higher = more abundant; growth selection in yeast, the domain comes from the species named. The following applies: Homo sapiens.
“SAFB-like transcription modulator G19S, Q9NWH9” returned an abundance fitness of -0.003 ± 0.064.
As to “SAFB-like transcription modulator G19T, Q9NWH9”, the abundance fitness was -0.406 ± 0.34.
“SAFB-like transcription modulator G19V, Q9NWH9” had an abundance fitness of 0.053 ± 0.072.
Take “SAFB-like transcription modulator G19W, Q9NWH9”: the abundance fitness was -0.72 ± 0.35.
With “SAFB-like transcription modulator G19Y, Q9NWH9”, the abundance fitness turned out to be 0.212 ± 0.24.
The substance “SAFB-like transcription modulator G43C, Q9NWH9” registered an abundance fitness of -0.464 ± 0.19.
As for “SAFB-like transcription modulator G43D, Q9NWH9”, the abundance fitness was -0.712 ± 0.2.
In the case of “SAFB-like transcription modulator G43V, Q9NWH9”, the abundance fitness was -0.601 ± 0.26.
Turning to “SAFB-like transcription modulator G60A, Q9NWH9”, the abundance fitness was -0.317 ± 0.047.
“SAFB-like transcription modulator G60C, Q9NWH9” showed an abundance fitness of -0.258 ± 0.036.
In turn, “SAFB-like transcription modulator G60D, Q9NWH9” yielded an abundance fitness of -0.171 ± 0.062.
With “SAFB-like transcription modulator G60E, Q9NWH9”, the abundance fitness is -0.347 ± 0.05.
In turn, “SAFB-like transcription modulator G60F, Q9NWH9” gave an abundance fitness of -0.584 ± 0.06.
Turning to “SAFB-like transcription modulator G60I, Q9NWH9”, the abundance fitness is -0.792 ± 0.08.
On to “SAFB-like transcription modulator G60K, Q9NWH9”, for which the abundance fitness is -0.162 ± 0.052.
Turning to “SAFB-like transcription modulator G60L, Q9NWH9”, the abundance fitness is -0.396 ± 0.036.
As for “SAFB-like transcription modulator G60M, Q9NWH9”, the figure is -0.238 ± 0.038; as for “SAFB-like transcription modulator G60N, Q9NWH9”, -0.108 ± 0.04.
For the substance “SAFB-like transcription modulator G60Q, Q9NWH9”, the abundance fitness was -0.181 ± 0.042.
In turn, “SAFB-like transcription modulator G60R, Q9NWH9” yielded an abundance fitness of -0.238 ± 0.033.
“SAFB-like transcription modulator G60S, Q9NWH9” came in with an abundance fitness of -0.308 ± 0.041.
Regarding “SAFB-like transcription modulator G60V, Q9NWH9”, the abundance fitness was -0.515 ± 0.04.
Substance “SAFB-like transcription modulator G60W, Q9NWH9” yielded an abundance fitness of -0.658 ± 0.047.
In the case of “SAFB-like transcription modulator G60Y, Q9NWH9”, the abundance fitness was -0.591 ± 0.07.
As for “SAFB-like transcription modulator G61A, Q9NWH9”, the figure is -0.158 ± 0.049.
Turning to “SAFB-like transcription modulator G61C, Q9NWH9”, the abundance fitness is -0.164 ± 0.064.
For “SAFB-like transcription modulator G61D, Q9NWH9”, the abundance fitness is -0.229 ± 0.056.
As for “SAFB-like transcription modulator G61E, Q9NWH9”, the figure is -0.303 ± 0.064; as for “SAFB-like transcription modulator G61F, Q9NWH9”, -0.474 ± 0.072; as for “SAFB-like transcription modulator G61H, Q9NWH9”, -0.16 ± 0.049.
On to “SAFB-like transcription modulator G61I, Q9NWH9”, for which the abundance fitness was -0.415 ± 0.098.
Consider “SAFB-like transcription modulator G61K, Q9NWH9”, for which the abundance fitness is -0.18 ± 0.06.
Take “SAFB-like transcription modulator G61L, Q9NWH9”: the abundance fitness was -0.098 ± 0.043.
In turn, “SAFB-like transcription modulator G61M, Q9NWH9” yielded an abundance fitness of -0.135 ± 0.06.
As for “SAFB-like transcription modulator G61N, Q9NWH9”, the figure is -0.208 ± 0.083; as for “SAFB-like transcription modulator G61P, Q9NWH9”, -0.31 ± 0.062; as for “SAFB-like transcription modulator G61Q, Q9NWH9”, -0.141 ± 0.066.
In turn, “SAFB-like transcription modulator G61R, Q9NWH9” displayed an abundance fitness of -0.227 ± 0.042.
As for “SAFB-like transcription modulator G61S, Q9NWH9”, the figure is -0.23 ± 0.049; as for “SAFB-like transcription modulator G61T, Q9NWH9”, -0.296 ± 0.046.
As for “SAFB-like transcription modulator G61V, Q9NWH9”, the abundance fitness is -0.39 ± 0.046.
For the substance “SAFB-like transcription modulator G61W, Q9NWH9”, the abundance fitness was -0.537 ± 0.059.
As for “SAFB-like transcription modulator G61Y, Q9NWH9”, the figure is -0.259 ± 0.082; as for “SAFB-like transcription modulator I22A, Q9NWH9”, -0.65 ± 0.078; as for “SAFB-like transcription modulator I22C, Q9NWH9”, -0.347 ± 0.05.
The substance “SAFB-like transcription modulator I22D, Q9NWH9” gave an abundance fitness of -0.464 ± 0.087.
In the case of “SAFB-like transcription modulator I22E, Q9NWH9”, the abundance fitness was -0.57 ± 0.11.
As for “SAFB-like transcription modulator I22F, Q9NWH9”, the figure is -0.372 ± 0.087; as for “SAFB-like transcription modulator I22G, Q9NWH9”, -0.562 ± 0.044; as for “SAFB-like transcription modulator I22H, Q9NWH9”, -0.471 ± 0.12.
As for “SAFB-like transcription modulator I22K, Q9NWH9”, the figure is -0.576 ± 0.072.
With “SAFB-like transcription modulator I22L, Q9NWH9”, the abundance fitness was -0.115 ± 0.061.
With “SAFB-like transcription modulator I22N, Q9NWH9”, the abundance fitness is -0.659 ± 0.11.
The substance “SAFB-like transcription modulator I22P, Q9NWH9” yielded an abundance fitness of -0.736 ± 0.089.
Take “SAFB-like transcription modulator I22Q, Q9NWH9”: the abundance fitness is -0.606 ± 0.093.
Substance “SAFB-like transcription modulator I22R, Q9NWH9” gave an abundance fitness of -0.743 ± 0.048.
Turning to “SAFB-like transcription modulator I22S, Q9NWH9”, the abundance fitness is -0.521 ± 0.065.
As for “SAFB-like transcription modulator I22T, Q9NWH9”, the figure is -0.542 ± 0.1.
“SAFB-like transcription modulator I22V, Q9NWH9” gave an abundance fitness of -0.132 ± 0.037.
“SAFB-like transcription modulator I22W, Q9NWH9” gave an abundance fitness of -0.94 ± 0.085.
Take “SAFB-like transcription modulator I22Y, Q9NWH9”: the abundance fitness is -0.531 ± 0.085.
“SAFB-like transcription modulator I28A, Q9NWH9” came in with an abundance fitness of 0.055 ± 0.1.
“SAFB-like transcription modulator I28E, Q9NWH9” came in with an abundance fitness of -0.1 ± 0.11.
The substance “SAFB-like transcription modulator I28F, Q9NWH9” yielded an abundance fitness of -0.417 ± 0.17.
In turn, “SAFB-like transcription modulator I28G, Q9NWH9” had an abundance fitness of -0.106 ± 0.064.
As for “SAFB-like transcription modulator I28K, Q9NWH9”, the figure is -0.22 ± 0.22.
